Results published in US12246062B2, “Recombinant human acid alpha-glucosidase” (Amicus Therapeutics, Inc., priority 2017, dated 2025).
Marks after values point to notes of the source that are not given here. Each block holds one compound with its values, some of them ahead of it.

Tests used:
[1] = Thermostability assay using SYPRO Orange; format: physicochemical
Procedure: The stability of ATB200 in acidic or neutral pH buffers was evaluated in a thermostability assay using SYPRO Orange, as the fluorescence of the dye increases when proteins denature. […] As summarized in Table 6, the addition of AT2221 increased the melting temperature (Tm) of ATB200 by nearly 10° C.

Gaa KO mice [2] = experiment: Single fiber analysis, LAMP1/LC3 co-immunofluorescence; format: in vivo
Source text: FIG. 17 depicts co-immunofluorescent staining of LAMP1 (green) (see for example, “B”) and LC3 (red) (see, for example, “A”) in single fibers isolated from the white gastrocnemius of Gaa KO mice treated with a vehicle, alglucosidase alfa, or ATB200. “C” depicts clearance of autophagic debris and absence of enlarged lysosome. A minimum of 30 fibers were examined from each animal.
As a result, a significant portion of muscle fibers analyzed (36-60%) from ATB200-treated mice appeared normal or near-normal.

[3] = parameters: species or system human; settings: in vivo
Procedure: Preclinical studies were conducted in Gaa knockout mice to evaluate the pharmacokinetics (PK) and efficiency of glycogen reduction at varying ATB200 enzyme replacement therapy (ERT) and AT2221 chaperone doses. […] Study ATB200-02 (NCT02675465) was then designed as an open-label fixed-sequence, ascending dose, first-in-human, phase 1/2 study to evaluate the safety, tolerability, PK, pharmacodynamics (PD), and efficacy of ATB200 co-administered with AT2221 in patients with Pompe disease. FIGS. 19A-19B present the ATB200-02 study design. Ambulatory patients who have previously received enzyme replacement therapy with alglucosidase alfa are referred to as ambulatory ERT-switch (or ERT-switch ambulatory) patients or Cohort 1 patients. Nonambulatory patients who have previously received enzyme replacement therapy with alglucosidase alfa are referred to as nonambulatory ERT-switch (or ERT-switch nonambulatory) patients or Cohort 2 patients. Ambulatory patients who have not previously received enzyme replacement therapy with alglucosidase alfa are referred to as ERT-naïve (or ERT-naïve ambulatory) patients or Cohort 3 patients. Total GAA protein concentrations in plasma for ATB200 at 5 mg/kg, 10 mg/kg, and 20 mg/kg were determined by validated LC-MS/MS quantification of rhGAA-specific “signature” peptide(s) […] (primary) and T50 (confirmatory) for 11 Cohort 1 patients who completed Stages 1 and 2, as well as for five Cohort 2 patients who completed the PK study in Stage 3. For Stage 1, blood samples for plasma total GAA protein concentration were collected prior to the start of ATB200 infusion and at 1, 2, 3, 3.5, 4, 4.5, 5, 6, 8, 10, 12, and 24 hour(s) after the start of infusion. For Stage 2 and Stage 3, blood samples for plasma total GAA protein concentration were collected prior to the start of infusion and at 1, 2, 3, 3.5, 4, 4.5, 5, 6, 8, 10, 12, and 24 hour(s) after the start of infusion.

CIMPR [4] = target: T1, CIMPR (Homo sapiens, UniProt P11717); experiment: CIMPR plate binding assay
Procedure: In addition to having a greater percentage of rhGAA that can bind to the CIMPR, it is important to understand the quality of that interaction. Lumizyme® and ATB200 receptor binding was determined using a CIMPR plate binding assay. Briefly, CIMPR-coated plates were used to capture GAA. Varying concentrations of rhGAA were applied to the immobilized receptor and unbound rhGAA was washed off. The amount of remaining rhGAA was determined by GAA activity. […] For Lumizyme®, there is on average only 10% of molecules having a bis-phosphorylated N-glycan. In contrast, on average every rhGAA molecule in ATB200 has at least one bis-phosphorylated N-glycan.
N-glycan analysis via MALDI-TOF mass spectrometry confirmed that on average each ATB200 molecule contains at least one natural bis-M6P N-glycan structure.

[5] = system: normal and Pompe fibroblast cell lines; experiment: Cellular uptake of rhGAA in fibroblasts; format: cell-based; settings: for concentration that saturates cellular receptors: 16-hr incubation, internalized GAA by 4MU-α-Glucoside hydrolysis; for uptake efficiency constant (Kuptake): extrapolated from uptake results
Procedure: The relative cellular uptake of ATB200 and Lumizyme® rhGAA were compared using normal and Pompe fibroblast cell lines. Comparisons involved 5-100 nM of ATB200 according to the invention with 10-500 nM conventional rhGAA product Lumizyme® After 16-hr incubation, external rhGAA was inactivated with TRIS base and cells were washed 3-times with PBS prior to harvest. Internalized GAA measured by 4MU-α-Glucoside hydrolysis and was graphed relative to total cellular protein and the results appear in FIGS. 11A-11C.
ATB200 was also shown to be efficiently internalized into cells. […] ATB200 saturates cellular receptors at about 20 nM, while about 250 nM of Lumizyme® is needed to saturate cellular receptors.

CIMPR [6] = target: T1, CIMPR; experiment: CIMPR affinity chromatography; format: binding; settings: CIMPR affinity column; fraction of total enzyme by GAA activity
Source text: Multiple batches of the rhGAA according to the invention were produced in shake flasks and in perfusion bioreactors using CHO cell line GA-ATB200, the product of which is referred to as “ATB200.” Weak anion exchange (“WAX”) liquid chromatography was used to fractionate ATB200 rhGAA according to terminal phosphate and sialic acid. Elution profiles were generated by eluting the ERT with increasing amount of salt. The profiles were monitored by UV (A280 nm).
To evaluate the ability of the conventional rhGAAs in Myozyme® and Lumizyme® to interact with the CIMPR, the two conventional rhGAA preparations were injected onto a CIMPR affinity column (which binds rhGAA having M6P groups) and the flow through collected. The bound material was eluted with a free M6 gradient. Fractions were collected in 96-well plate and GAA activity assayed by 4MU-α-glucosidase substrate. The relative amounts of unbound (flow through) and bound (M6P eluted) rhGAA were determined based on GAA activity and reported as the fraction of total enzyme. […] Indeed, only 27% of the rhGAA in Myozyme® and 22% of the rhGAA in Lumizyme® contained M6P that can be productive to target it to the CIMPR on muscle cells.

Gaa KO mice [7] = experiment: Muscle fiber biomarkers LAMP1, LC3, dysferlin; format: in vivo
Procedure: The therapeutic effects of ATB200 and AT2221 were evaluated and compared against those of Alglucosidase alfa in Gaa KO mice. For the study, male Gaa KO (3- to 4-month old) and age-matched wild-type (WT) mice were used. Alglucosidase alfa was administered via bolus tail vein intravenous (IV) injection. In the co-administration regimen, AT2221 was administered via oral gavage (PO) 30 minutes prior to the IV injection of ATB200. Treatment was given biweekly. Treated mice were sacrificed after 14 days from the last administration and various tissues were collected for further analysis. Table 7 summarizes the study design:
Tissue samples were also analyzed for biomarker changes following the methods discussed in: Khanna R, et al. (2012), “The pharmacological chaperone AT2220 increases recombinant human acid α-glucosidase uptake and glycogen reduction in a mouse model of Pompe disease,” Plos One 7(7): e40776; and Khanna. […]
Similarly, intense LC3-positive aggregates in the muscle fibers of untreated Gaa KO mice signify the presence of autophagic zones and autophagy build-up. […] A similar observation was made when the expression of LC3 was assessed using western blot. […]
Dysferlin, a protein involved in membrane repair and whose deficiency/mistrafficking is associated with a number of muscular dystrophies, w as also assessed.

[8] = single fibers from white gastrocnemius

T1 sequence (P11717 41-2491, species assumed): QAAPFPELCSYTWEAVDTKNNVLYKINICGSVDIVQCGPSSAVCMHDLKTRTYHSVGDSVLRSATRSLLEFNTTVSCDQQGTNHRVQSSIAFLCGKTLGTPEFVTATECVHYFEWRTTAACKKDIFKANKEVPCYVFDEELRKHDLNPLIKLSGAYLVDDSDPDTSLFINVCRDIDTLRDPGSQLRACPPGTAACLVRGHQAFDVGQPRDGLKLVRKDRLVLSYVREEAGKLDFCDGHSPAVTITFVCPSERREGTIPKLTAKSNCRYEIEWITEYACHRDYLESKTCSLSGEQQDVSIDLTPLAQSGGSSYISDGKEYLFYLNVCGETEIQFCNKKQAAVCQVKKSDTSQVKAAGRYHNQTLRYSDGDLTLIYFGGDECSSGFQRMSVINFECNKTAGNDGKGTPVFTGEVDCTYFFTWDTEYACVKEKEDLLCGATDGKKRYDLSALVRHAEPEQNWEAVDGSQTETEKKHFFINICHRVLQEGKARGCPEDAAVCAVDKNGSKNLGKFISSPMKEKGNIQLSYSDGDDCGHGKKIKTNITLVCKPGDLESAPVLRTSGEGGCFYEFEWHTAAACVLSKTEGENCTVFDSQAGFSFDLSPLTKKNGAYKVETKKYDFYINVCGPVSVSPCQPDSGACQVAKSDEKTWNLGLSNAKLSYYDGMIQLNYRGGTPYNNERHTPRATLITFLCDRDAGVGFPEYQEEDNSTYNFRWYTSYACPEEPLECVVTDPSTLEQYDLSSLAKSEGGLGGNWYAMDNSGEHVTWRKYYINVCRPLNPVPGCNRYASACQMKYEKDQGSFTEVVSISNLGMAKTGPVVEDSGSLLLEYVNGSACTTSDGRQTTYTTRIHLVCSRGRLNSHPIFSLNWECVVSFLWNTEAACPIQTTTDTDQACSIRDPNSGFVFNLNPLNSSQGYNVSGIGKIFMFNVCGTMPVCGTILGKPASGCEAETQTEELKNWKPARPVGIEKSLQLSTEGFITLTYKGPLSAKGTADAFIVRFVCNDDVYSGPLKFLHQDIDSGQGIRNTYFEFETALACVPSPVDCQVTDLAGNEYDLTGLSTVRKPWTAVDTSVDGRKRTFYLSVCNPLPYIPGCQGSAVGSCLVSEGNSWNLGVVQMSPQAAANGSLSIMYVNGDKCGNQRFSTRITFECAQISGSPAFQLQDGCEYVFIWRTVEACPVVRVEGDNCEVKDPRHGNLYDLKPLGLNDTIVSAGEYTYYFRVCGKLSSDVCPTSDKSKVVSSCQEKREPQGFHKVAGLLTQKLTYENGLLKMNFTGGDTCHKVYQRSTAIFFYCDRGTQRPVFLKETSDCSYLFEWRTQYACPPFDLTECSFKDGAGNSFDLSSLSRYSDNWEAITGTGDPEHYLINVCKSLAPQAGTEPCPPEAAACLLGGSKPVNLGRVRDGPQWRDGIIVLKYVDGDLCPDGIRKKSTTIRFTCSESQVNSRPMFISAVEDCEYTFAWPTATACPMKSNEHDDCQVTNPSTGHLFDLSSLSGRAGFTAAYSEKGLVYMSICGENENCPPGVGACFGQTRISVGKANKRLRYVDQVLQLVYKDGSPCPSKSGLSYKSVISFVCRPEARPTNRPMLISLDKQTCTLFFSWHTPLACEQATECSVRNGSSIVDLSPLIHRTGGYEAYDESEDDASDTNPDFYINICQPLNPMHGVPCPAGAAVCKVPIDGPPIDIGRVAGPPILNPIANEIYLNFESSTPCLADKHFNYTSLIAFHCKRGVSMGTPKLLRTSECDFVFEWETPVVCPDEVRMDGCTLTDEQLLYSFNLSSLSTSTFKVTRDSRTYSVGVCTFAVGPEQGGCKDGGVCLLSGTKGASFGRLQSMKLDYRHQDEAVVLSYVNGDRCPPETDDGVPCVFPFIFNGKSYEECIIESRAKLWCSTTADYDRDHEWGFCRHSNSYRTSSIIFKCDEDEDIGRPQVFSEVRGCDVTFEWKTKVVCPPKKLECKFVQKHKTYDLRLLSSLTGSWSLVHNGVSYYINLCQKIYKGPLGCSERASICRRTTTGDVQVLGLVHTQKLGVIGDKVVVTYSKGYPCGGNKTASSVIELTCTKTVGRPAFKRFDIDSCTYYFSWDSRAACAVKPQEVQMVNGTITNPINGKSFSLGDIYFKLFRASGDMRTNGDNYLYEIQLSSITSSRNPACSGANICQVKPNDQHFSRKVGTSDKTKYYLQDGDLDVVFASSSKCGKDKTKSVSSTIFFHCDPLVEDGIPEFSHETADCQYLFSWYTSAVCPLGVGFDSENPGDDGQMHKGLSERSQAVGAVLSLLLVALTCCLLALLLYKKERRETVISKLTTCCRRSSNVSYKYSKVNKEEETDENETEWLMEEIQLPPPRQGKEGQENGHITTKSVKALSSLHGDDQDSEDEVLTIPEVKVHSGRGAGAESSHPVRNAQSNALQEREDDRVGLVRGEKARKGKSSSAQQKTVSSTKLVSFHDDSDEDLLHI

Compound: CCCCN1C[C@H](O)[C@@H](O)[C@H](O)[C@H]1CO [AT2221, (2R,3R,4R,5S)-1-butyl-2-(hydroxymethyl)piperidine-3,4,5-triol, reference compound]
stabilization of ATB200 ([1]; pH 7.4): stabilized ATB200 at pH 7.4 in a concentration-dependent manner

Kd (CIMPR [4]; M6P receptor plate binding assays, read-out: Ku, high-affinity binding to CIMPR): 2 to 4 nM
Compound: ATB200: rhGAA with a high content of N-glycans bearing mono-M6P and bis-M6P, produced from a GA-ATB200 CHO cell line
area with autophagic buildup (Gaa KO mice [2]; single fibers): reduced to various degrees | Fibers with Autophagy Buildup (Gaa KO mice [2]; [8]): 40-64%* | increase in distribution half-life (α-phase) ([3]; human): 40% | increase in partial AUC from time to maximum plasma concentration to 24 hours post-dose ([3]; human): 42.2% | AUC ratio, signature peptide T50 vs T09 [3]: 1.00 | dose proportionality of ATB200 levels [3]: slightly greater-than-dose proportional | plasma total GAA protein exposure, ERT-naive (Cohort 3) vs ERT-switch (Cohort 1) [3]: no statistically significant difference | Tm ([1]; pH 5.2): 67.3 °C | Tm ([1]; pH 7.4): 56.2 °C | increase of melting temperature (Tm) on addition of AT2221 ([1]; pH 7.4): ~10 °C | Tm ([1]; pH 7.4 + 10 μM AT2221): 61.6 °C | Tm ([1]; pH 7.4 + 30 μM AT2221): 62.9 °C | Tm ([1]; pH 7.4 + 100 μM AT2221): 66.0 °C | binding to CIMPR compared with Lumizyme (CIMPR [4]; CIMPR-coated plates, varying rhGAA concentrations): bound to CIMPR significantly better than Lumizyme® | concentration that saturates cellular receptors [5]: about 20 nM | internalization into normal and Pompe fibroblast cells ([5]; compared with Lumizyme): internalized to a greater degree than the conventional rhGAA product Lumizyme® | uptake efficiency constant (Kuptake) [5]: 2-3 nm

rhGAA that binds to the CIMPR (CIMPR [6]): 22% | rhGAA that did not bind to the CIMPR (CIMPR [6]): 78%
Compound: Lumizyme®: conventional rhGAA product containing alglucosidase alfa, marketed by Genzyme [reference compound]
concentration that saturates cellular receptors [5]: about 250 nM | uptake efficiency constant (Kuptake) [5]: 56 nM

rhGAA that binds to the CIMPR (CIMPR [6]): 27% | rhGAA that did not bind to the CIMPR (CIMPR [6]): 73%
Compound: Myozyme®: conventional rhGAA product containing alglucosidase alfa, marketed by Genzyme
lysosome size and autophagic buildup compared to vehicle-treated mice (Gaa KO mice [2]; single fibers): did not show any significant difference

Compound: [199-arginine,223-histidine]prepro-α-glucosidase (human) [alglucosidase alfa, reference compound]
Fibers with Autophagy Buildup (Gaa KO mice [2]; [8]): >90% | Fibers with Normal or Near-normal Appearance (Gaa KO mice [2]; [8]): <10% | effect on autophagy (Gaa KO mice [7]): modest
